# Source: patent US20090081191A1 (MICROMET, published 2009)
# T1: recombinant soluble human 17-1A-antigen (human, UniProt P16422 24-265)
# T1 construct: extracellular domain; also called s17-1A; soluble 17-1A-antigen
# T1 sequence (looked up): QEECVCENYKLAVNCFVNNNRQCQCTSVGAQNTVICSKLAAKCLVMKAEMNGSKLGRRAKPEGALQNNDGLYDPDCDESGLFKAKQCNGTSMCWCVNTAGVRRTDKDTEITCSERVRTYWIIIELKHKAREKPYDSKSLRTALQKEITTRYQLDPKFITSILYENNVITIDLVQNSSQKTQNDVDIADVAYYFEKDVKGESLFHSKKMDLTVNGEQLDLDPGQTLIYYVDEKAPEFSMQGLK
# Legend:
# [1] = biological target: recombinant soluble human 17-1A-antigen (human) (UniProt P16422); assay: SPR (BIACORE 2000), s17-1A immobilized on CM5, 2. set
# [2] = biological target: recombinant soluble human 17-1A-antigen (human) (UniProt P16422); assay: SPR (BIACORE 2000), s17-1A immobilized on CM5, 1. set
# [3] = biological target: T1, recombinant soluble human 17-1A-antigen; assay: SPR (BIACORE 2000), s17-1A immobilized on CM5, 2. set
# Experimental: Surface plasmon resonance measurement was performed using the BIACORE 2000 device (Biacore AB, Freiburg, Freiburg, Germany). Immobilization of recombinant soluble 17-1A-antigen in each flow cell and analysis of the interaction was carried out with an automatic method in BIACORE 2000. The antigen was covalently coupled to sensor chip CM5 via primary amine groups. After activation of the carboxylated dextran matrix of CM5 sensor chip with a single injection of […] of 0.1 M N-hydroxisuccinimide/0.4 M N-ethyl-N′-(3-dimethylaminopropyl)-carbodiimide (NHS/EDC9) through all four flow cells, flow cells 1,2,3 and 4 were successively included into the flow path during injection of s17-1A-antigen (60 μg/ml in 10 mM sodium acetate, pH 4.7). Different contact times of 17-1A to the activated surface lead to approximately 2500 response units (RU9 in flow cell 1, 14000 RU in flow cell 2, 780 RU in flow cell 3 and 290 RU in flow cell 4). Excess activated esters were blocked by injection of 85 μl 1 M ethanolamine pH 5 over all four flow cells. Binding experiments were performed at 25° C. in buffer of pH 7.4 containing 10 mM Hepes, 150 mM NaCl, 3 mM EDTA and 0.005% surfactant P20. The binding kinetics of antibodies to immobilized recombinant 17-1A were determined by injecting antibody concentrations ranging from 0.5 to […]. The sensor chip was regenerated between each run with 100 mM Glycin, 500 mM NaCl, 0.005% Tween pH3. The association and dissociation rate constants, Kon and Koff were analysed using BIA-evaluation software from Biacore AB as described (Karlsson, (1991) J Immunol Meth 145: 229-240).
# Two sets of affinity determinations were carried out (1. set: M79, H79, D7.2, Panorex; 2. set: Panorex, HD70); the murine Panorex was also included in set 2 as internal reference.
Binder,Kd [1],koff [1],kon [1],Kd [2],koff [2],kon [2],Kd [3],koff [3],kon [3]
"murine Panorex (antibody, INN chains, looked up, V domains shown) VH: QVQLQQSGAELVRPGTSVKVSCKASGYAFTNYLIEWVKQRPGQGLEWIGVINPGSGGTNYNEKFKGKATLTADKSSSTAYMQLSSLTSDDSAVYFCARDGPWFAYWGQGTLVTVSA VL: NIVMTQSPKSMSMSVGERVTLTCKASENVVTYVSWYQQKPEQSPKLLIYGASNRYTGVPDRFTGSGSATDFTLTISSVQAEDLADYHCGQGYSYPYTFGGGTKLEIK",270 nM,0.027 s⁻¹,100000 M⁻¹ s⁻¹,200 nM,0.022 s⁻¹,110000 M⁻¹ s⁻¹,–,–,–
"HD70 (VD4.5huIgG1-k5.1) (antibody, V domains shown, Complete human IgG1 antibody produced in CHO cells; also called human HD70; not shown: human IgG1 heavy chain constant region) VH: EVQLLESGGGVVQPGRSLRLSCAASGFTFSSYGMHWVRQAPGKGLEWVAVISYDGSNKYYADSVKGRFTISRDNSKNTLYLQMNSLRAEDTAVYYCAKDMGWGSGWRPYYYYGMDVWGQGTTVTVSS VL: ELQMTQSPSSLSASVGDRVTITCRASQSISSYLNWYQQKPGQPPKLLIYWASTRESGVPDRFSGSESGTNYTLTISSLQPEDFATYFCQQSDSLPITFGQGTRLDIQ",–,–,–,–,–,–,390 nM,0.035 s⁻¹,90000 M⁻¹ s⁻¹
